Measured values published in patent US20240158497A1 (published 2024).

T1: human gp130 expressed endogenously on IMR-32/Stat3-luc cells (human, UniProt P40189 23-918)
T1 construct: Endogenous gp130 of the human neuroblastoma line IMR-32
T1 sequence: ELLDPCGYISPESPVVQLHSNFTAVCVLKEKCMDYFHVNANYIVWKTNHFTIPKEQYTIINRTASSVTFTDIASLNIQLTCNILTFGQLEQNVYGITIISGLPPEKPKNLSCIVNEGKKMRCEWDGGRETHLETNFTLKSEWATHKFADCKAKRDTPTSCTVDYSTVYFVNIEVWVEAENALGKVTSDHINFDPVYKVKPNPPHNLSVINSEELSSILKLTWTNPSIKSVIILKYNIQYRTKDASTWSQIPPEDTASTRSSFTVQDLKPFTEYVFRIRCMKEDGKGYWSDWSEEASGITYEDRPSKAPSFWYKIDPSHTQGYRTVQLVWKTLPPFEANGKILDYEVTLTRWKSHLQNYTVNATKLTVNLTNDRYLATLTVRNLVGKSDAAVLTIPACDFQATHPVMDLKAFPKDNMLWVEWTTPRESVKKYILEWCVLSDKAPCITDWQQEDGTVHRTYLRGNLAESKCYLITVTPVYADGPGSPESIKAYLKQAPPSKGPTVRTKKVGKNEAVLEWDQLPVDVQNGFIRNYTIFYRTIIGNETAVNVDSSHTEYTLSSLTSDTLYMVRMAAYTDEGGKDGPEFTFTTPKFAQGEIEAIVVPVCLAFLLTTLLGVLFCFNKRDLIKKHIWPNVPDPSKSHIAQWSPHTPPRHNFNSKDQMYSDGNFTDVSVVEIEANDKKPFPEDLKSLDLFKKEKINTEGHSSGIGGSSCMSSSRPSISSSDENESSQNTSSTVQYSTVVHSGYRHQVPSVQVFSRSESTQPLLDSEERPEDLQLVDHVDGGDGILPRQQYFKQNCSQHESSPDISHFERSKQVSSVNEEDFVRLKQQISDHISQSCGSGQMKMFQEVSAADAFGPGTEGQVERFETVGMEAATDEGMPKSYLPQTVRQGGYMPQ

B1: MAb16659 (antibody, V domains shown)
VH: QVQLVQSGPEVKKPGSSVKVSCKASGGTIDRNEITWVRQAPGQGLEWMGVIIPILGEAHYERKFQGRLTITMDESTSTAYMELSNLRSEDTAVYYCARERAARGYLDYWGQGTLVTVSS
VL: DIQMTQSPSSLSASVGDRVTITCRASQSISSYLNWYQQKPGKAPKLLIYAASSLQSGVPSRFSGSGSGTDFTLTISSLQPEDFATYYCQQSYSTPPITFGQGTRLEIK
notes: hIgG4 isotype control used
B2: MAb16614 (antibody, V domains shown)
VH: QVQLVESGGGVVQPGGSLRLSCAASGFTFSTYDIHWVRQAPGKGLEWVAVISFDGSNRNYGDSVKGRFTISRDNSDNTLFLEMNNLRFEDTAVYYCAKEGYGVDFQHWGQGTLVTVSS
VL: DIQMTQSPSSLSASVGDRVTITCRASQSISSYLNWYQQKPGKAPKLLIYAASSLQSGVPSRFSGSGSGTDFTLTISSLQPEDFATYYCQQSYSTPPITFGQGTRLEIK
notes: hIgG4 isotype control used
B3: MAb16673 (antibody, V domains shown)
VH: EVQLVQSGAEVKKPGESLKISCKGSGYSFTSYWIDWVRQMPGKGLEWMGIIYPDDSDTRYSPSFQGQVTMSVDKSISTAYLQWSSLKASDTAIYYCARHERGIVEAGTDYYYYYGMDVWGQGTTVTVSS
VL: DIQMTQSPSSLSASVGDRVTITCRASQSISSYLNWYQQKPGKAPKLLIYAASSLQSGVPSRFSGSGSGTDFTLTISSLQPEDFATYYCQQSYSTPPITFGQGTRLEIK
notes: hIgG4 isotype control used
B4: MAb16664 (antibody, V domains shown)
VH: QVQLVQSGTEVKKPGSSVKVSCKASGGTFSTYPINWVRQAPGQGLEWMGGIIPIFGTASYAQKFQGRVAITTDESTSTAYMELNSLRSEDTAVYYCARERPNWGSNDYWGQGTLVTVSS
VL: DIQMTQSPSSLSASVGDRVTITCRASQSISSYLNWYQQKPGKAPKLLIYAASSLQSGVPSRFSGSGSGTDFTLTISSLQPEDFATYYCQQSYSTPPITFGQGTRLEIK
notes: hIgG4 isotype control used
B5: MAb16682 (antibody, V domains shown)
VH: EVQLVESGGGLVQPGGSLRLSCAASGFTFSTYWMNWVRQAPGKGLEWVANIKEDGSEKYYVDSVKGRFTISRDNAKNSLYLQMNSLRAEDTAVYYCAREGFGVVTYIWGQGTMVTVSS
VL: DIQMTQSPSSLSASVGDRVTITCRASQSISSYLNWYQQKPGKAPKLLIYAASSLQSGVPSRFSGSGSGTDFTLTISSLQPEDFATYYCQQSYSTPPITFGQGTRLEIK
notes: hIgG4 isotype control used
B6: MAb16666 (antibody, V domains shown)
VH: EVQLVESGGGLVQSGGSLRLSCAASGFTFSRYEMNWVRQAPGKGLEWVAYISNTGTTRDYSDSVKGRFTISRDNAKNSLYLQMSSLRVEDTAVYYCVREKFSGTSDWFDPWGQGTLVTVSS
VL: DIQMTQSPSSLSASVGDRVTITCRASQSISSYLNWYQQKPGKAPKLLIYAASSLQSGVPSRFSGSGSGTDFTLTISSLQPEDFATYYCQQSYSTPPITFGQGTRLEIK
notes: hIgG4 isotype control used
B7: MAb16618 (antibody, V domains shown)
VH: QVQLQESGPGLVKPSETLSLTCTVSGGSISNYYWTWIRQPPGKGLEWIGHISNSGTTNYNPSLKSRVTISVDTSKNQFSLKLTSVTAADTAVYYCARLPLGIAAVDTDYYYYFGMDVWGQGTTVTVSS
VL: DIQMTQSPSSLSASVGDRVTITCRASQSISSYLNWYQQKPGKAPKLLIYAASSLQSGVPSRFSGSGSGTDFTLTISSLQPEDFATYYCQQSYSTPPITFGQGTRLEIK
notes: hIgG4 isotype control used
B8: MAb16669 (antibody, V domains shown)
VH: EVQLVESGGGLVQPGGSLRLSCAASGFTFSSYAMNWVRQAPGKGLEWVSAISGSGDSTYYTDSVKGRFTISRDNSKNTLYLQMNTLRAEDTAVYYCAKEEIVMLVGATPGWFDPWGQGTLVTVSS
VL: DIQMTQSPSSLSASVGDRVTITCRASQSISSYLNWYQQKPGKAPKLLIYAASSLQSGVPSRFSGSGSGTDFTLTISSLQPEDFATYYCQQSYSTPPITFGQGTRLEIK
notes: hIgG4 isotype control used
B9: MAb16683 (antibody, V domains shown)
VH: QVQLVESGGGLVKPGGSLRLSCAASGFTFSDYYMTWIRQTPGKGLDWVSYISSSGTNKYNADSVKGRFTISRDNAKNSLYLQMNSLRAEDTAVYYCVRDPPWGMDVWGQGTTVTVSS
VL: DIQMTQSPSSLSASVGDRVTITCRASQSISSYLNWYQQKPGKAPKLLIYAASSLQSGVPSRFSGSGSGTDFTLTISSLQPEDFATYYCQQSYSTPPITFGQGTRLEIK
notes: hIgG4 isotype control used
B10: MAb16623 (antibody, V domains shown)
VH: EVQLVESGGGLVQPGGSLRLSCAASGLTFSSYEMNWVRQAPGKGLEWVSHISSAGSTKYYADSVKGRFTISRDNAKNSLFLQMNSLRAEDTAIYYCAGYNYAYYYFGVDVWGQGTTVTVSS
VL: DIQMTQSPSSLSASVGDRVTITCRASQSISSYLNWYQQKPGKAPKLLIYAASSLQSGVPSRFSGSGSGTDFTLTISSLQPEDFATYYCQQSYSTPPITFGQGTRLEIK
notes: hIgG4 isotype control used
B11: MAb16662 (antibody, V domains shown)
VH: EVQLVESGGGLVQPGGSLRLSCTASGFTFSNYAIFWVRQAPGKGLEYVSGISNNGVTKYYADSVRDRFTISRDNSRNTVSIQMDSLRTEDMAVYYCARENWGSDDGFDIWGQGTMVTVSS
VL: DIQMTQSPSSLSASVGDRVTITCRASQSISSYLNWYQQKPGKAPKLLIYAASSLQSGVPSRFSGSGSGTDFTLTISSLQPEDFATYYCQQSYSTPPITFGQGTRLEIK
notes: hIgG4 isotype control used
B12: MAb16665 (antibody, V domains shown)
VH: QVQLVESGGGVVQPGRSLRLACAASGFTFRSYGMHWVRQAPGKGLEWVAVIWYDGSNKYYTDSVKGRFTISRDNSKNTLYLQMNSLRAEDTAMYYCAIDKWATVTTYLFDYWGQGTLVTVSS
VL: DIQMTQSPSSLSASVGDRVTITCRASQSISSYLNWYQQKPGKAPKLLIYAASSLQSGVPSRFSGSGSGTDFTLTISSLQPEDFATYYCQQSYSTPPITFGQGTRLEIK
notes: hIgG4 isotype control used
B13: MAb16676 (antibody, V domains shown)
VH: QVQLVQSGAEVMKPGASVKVSCRASGYTFSSYDINWVRQAPGQGLEWMGWISTATGNTNYPQKVQGRVTMTTDTSTNTAYMELRSLRSDDTAVYYCTREGNSKGWLDPWGQGTLVTVSS
VL: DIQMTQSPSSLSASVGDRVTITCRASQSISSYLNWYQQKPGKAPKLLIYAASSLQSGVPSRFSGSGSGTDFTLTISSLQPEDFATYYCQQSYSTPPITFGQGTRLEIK
notes: hIgG4 isotype control used
B14: MAb16622 (antibody, V domains shown)
VH: EVQLVESGGGVVRPGGSLRLSCTASGFTFDDYGMSWVRQAPGKGLEWVSGINWNGGRTEYADAVKGRFIISRDNAKNSLYLQMNSLRAEDTALYFCARTELRWDYWGQGTLVTVSS
VL: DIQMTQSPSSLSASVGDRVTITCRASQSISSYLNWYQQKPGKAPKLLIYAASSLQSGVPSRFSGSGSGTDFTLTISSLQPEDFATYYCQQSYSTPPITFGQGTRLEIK
notes: hIgG4 isotype control used
B15: MAb16637 (antibody, V domains shown)
VH: QVQLVQSGAEVKKPGASVKVSCKASGYTFTSLGISWVRQAPGQGLEWMGWISAYSGNRDYAQKFQGRVTMTTDTSTSTAYMELRSLRSDDTAVYYCARSLRFDYWGQGTLVTVSS
VL: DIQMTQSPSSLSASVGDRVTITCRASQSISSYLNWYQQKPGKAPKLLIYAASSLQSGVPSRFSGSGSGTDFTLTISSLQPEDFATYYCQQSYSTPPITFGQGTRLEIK
notes: hIgG4 isotype control used
B16: MAb16636 (antibody, V domains shown)
VH: QLQLQESGPGLVKPSETLSLICTVSGGSISSNNYYWGWIRQPPGKGLEWIGNLYGSGSTYYNPSLKSRVTISVDTSKNQFSLKLSFVTAADTAVYHCARWDTNGGAFDIWGQGTMVTVSS
VL: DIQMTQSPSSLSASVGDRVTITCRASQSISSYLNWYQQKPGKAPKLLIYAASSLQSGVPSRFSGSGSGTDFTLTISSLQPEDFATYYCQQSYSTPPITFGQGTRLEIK
notes: hIgG4 isotype control used
B17: MAb16656 (antibody, V domains shown)
VH: EVQLVESGGGLVQPGRSLRLSCAASGFTLDDFAMHWVRQAPGKGLEWVSGISWNSGNIGYADSVKGRFTISRDNARNSLYLQMNSLRAEDTALYYCTSGYYLYYAMDVWGQGTTVTVSS
VL: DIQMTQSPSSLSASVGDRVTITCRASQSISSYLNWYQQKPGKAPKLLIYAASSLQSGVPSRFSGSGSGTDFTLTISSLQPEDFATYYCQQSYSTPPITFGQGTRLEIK
notes: hIgG4 isotype control used

Molecular target: T1, human gp130 expressed endogenously on …
Assay: FACS, 10 nM Ab pre-bound to 1 uM hGP130.mmh, IMR-32/Stat3-luc cells
Source text: In order to assess cell binding by anti-GP130 antibodies of the invention two cell lines were generated. One cell line generated was HEK293 cells stably over-expressing full length (FL) human gp130 (amino acids 1-918 of accession #P40189 with leucine at position 2 changed to valine, a natural variant) along with a luciferase reporter (Stat3-luciferase, Stat3-luc, SA Bioscience, #CLS-6028L). The cells were sorted twice using flow cytometry for high expression of gp130. It is known hereafter as HEK293/Stat3-luc/gp130-2 X Sort. IMR-32 cells (human Neuroblastoma, ATCC), were also evaluated for cell binding as these cells express gp130 endogenously and were used for bioassays. The cells used for binding were generated to stably express a luciferase reporter (Stat3-luciferase, Stat3-luc, SA Bioscience, #CLS-6028L), and are referred to hereafter as IMR-32/STAT3-Luc cells.
For the FACS analysis, 10 nM of the antibodies were used to stain 0.5×10⁶ cells/well of each cell type at 4° C. in PBS (without calcium and magnesium) containing 2% FBS for 30 minutes. IMR-32/STAT3-luc cells were incubated with 1 mg/mL mouse IgG for 30 minutes at 4° C. to block Fc receptors prior to adding the antibodies. To test whether the anti-gp130 antibody binding is specific for gp130 on the IMR-32 cells, antibodies were added to IMR-32/Stat3-luc cells with or without being pre-bound to 1000 nM of recombinant protein of the ecto-domain of human gp130 fused to myc-myc-his tag (hgp130.mmh) for 30 minutes at 25° C. […] Cells were fixed using BD CytoFix™ (Becton Dickinson, #554655) and analyzed on an IQue® (Intellicyt®) Flow Cytometer. Unstained and secondary antibody alone controls were also tested for all cell lines. The results were analyzed using ForeCyt® (IntelliCyt®) software to determine the geometric means of fluorescence for viable cells.

MFI - Normalized to Unstained Control [ratio] | Binder
8 | B1
6 | B2
7 | B3
8 | B4
8 | B5
8 | B6
8 | B7
5 | B8
7 | B9
7 | B10
6 | B11
6 | B12
8 | B13
7 | B14
7 | B15
7 | B16
7 | B17

Molecular target: T1, human gp130 expressed endogenously on …
Assay: cell-based or functional assay

% inhibition; CNTF (20 pM) [%] | % inhibition; LIF (20 pM) [%] | % inhibition; OSM (100 pM) [%] | IC50 [M]; CNTF (20 pM) [M] | IC50 [M]; LIF (20 pM) [M] | IC50 [M]; OSM (100 pM) [M] | Binder
46 | 52 | 62 | > 1e-07 | 9e-09 | > 5e-08 | B3
– | – | 23 | – | – | > 1e-07 | B5
95 | – | – | 7.1e-10 | – | – | B6
33 | 40 | 52 | > 1e-07 | > 1e-07 | > 5e-08 | B7
22 | – | – | > 1e-07 | – | – | B10
62 | 76 | 82 | > 1e-08 | > 1e-08 | > 1e-08 | B16
